Measurements from patent publication US11976099B2, “Compositions and methods for treatment of bone associated diseases” (THE NATIONAL INSTITUTE FOR BIOTECHNOLOGY IN THE NEGEV LTD., priority 2016, dated 2024).
Changes are numbered by the printed parent chain. Numbers in names are those of the source.

B1: M-CSFM: 158 amino acid M-CSF with cysteine at position 31 replaced by serine (SEQ ID NO: 2) (protein)
chain: EEVSEYCSHMIGSGHLQSLQRLIDSQMETSSQITFEFVDQEQLKDPVCYLKKAFLLVQDIMEDTMRFRDNTPNAIAIVQLQELSLRLKSCFTKDYEEHDKACVRTFYETPLQLLEKVKNVFNETKNLLDKDWNIFSKNCNNSFAECSSQGHERQSEGS
B2: M-CSFC31S,M27R: M-CSF double mutant containing both C31S and M27R; monomeric, monospecific c-FMS antagonist (protein)
chain: B1 chain with M27R
B3: M-CSFWT: wild-type human M-CSF, disulfide-bond-linked homodimer which binds and activates c-FMS (protein)
chain: B1 chain with S31C

Test system: murine bone marrow derived monocytes (BMMs) differentiating to osteoclasts
Assay: Osteoclast differentiation assay of murine BMMs (TRAP staining)
Format: cell-based, mouse
Details: for effect on osteoclast differentiation/formation: Example 9, FIG. 13, varying concentrations, five days; for number of osteoclasts and number of nuclei / osteoclast formation: Example 14; for osteoclast formation: 50, 1000 and 5000 nM with M-CSFWT and RANKL
Procedure: Primary cells differentiation assay—Murine primary cells were obtained as described in the murine primary cells section. Cells were washed with PBS and detached using a cell scraper, and 20,000 cells were plated in each well of a 96-well plate. Osteoclast differentiation was induced by culturing the cells in α-MEM containing 10% of fetal bovine serum (FBS), penicillin and streptomycin, […] M-CSF and 20 ng/ul RANKL (R&D Systems, USA). To determine the influence of the M-CSFRGD variants and the M-CSFM on the osteoclasts, the proteins were added to the differentiation medium (with M-CSF and RANKL) in three different concentrations (50 nM, 1 μM and 5 μM). After 72-96 h, once the cells had differentiated fully, they were fixated with 4% paraformaldehyde and stained using the tartrate-resistant acid phosphatase (TRAP) staining kit (Sigma-Aldrich, USA) according to manufacturer's protocol. As a positive control, PBS was used instead of the inhibitors, and negative controls comprised cells incubated in differentiation medium without RANKL and inhibitors. […] Cells in each image were counted in a double-blind manner and the number of nuclei in the osteoclasts and the total osteoclast surface area were determined using ImageJ software. Three repeats were performed for every condition, and each repeat was normalized to the positive control values.
Differentiation assay—BMMs and CD14+ cells were obtained and grown as described above. The plates containing the monocytes were washed with PBS; the cells were detached using a cell scraper for BMMs or Accutase (Biological industries, Israel) for CD14^+; and 2×10^4 BMMs or 1×10^4 CD14^+ cells were transferred to each well in a 96-well plate. Osteoclast differentiation was induced as described in the ‘phosphorylation assay’ section. To determine the influence of M-CSFC31S and the M-CSFC31S,M27R on osteoclast differentiation, the proteins were added to the differentiation medium (with M-CSF and RANKL) in different concentrations (50 nM, 1 μM and 5 μM for BMMs and 50 nM, 250 nM and 1 μM for CD14^+). To determine the influence of human M-CSFWT on the differentiation, it was added to the cells in different concentrations (50 nM 1 μM and 5 μM) without adding murine M-CSFWT. Once the cells were fully differentiated, they were fixed with 4% paraformaldehyde and stained using the tartrate-resistant acid phosphatase (TRAP) staining kit (Sigma-Aldrich, USA) according to the manufacturer's protocol. As the positive control, cells were incubated with M-CSF and RANKL without inhibitors, and the negative control was comprised of cells that were incubated in differentiation medium without RANKL. […] Cells in each image were counted in a double-blind manner, and the number of nuclei in the osteoclasts was determined using ImageJ software. For the positive control of BMMs, an average of 28.33 osteoclasts and 135 nuclei per well were counted. For CD14^+ positive control, the average numbers of osteoclasts and nuclei were 14.5 and 75, respectively, per well. The results for each parameter were normalized to the positive control values.
Murine bone marrow monocytes were purified from the bone marrow of eight- to twelve-week-old mice and were seeded for osteoclast differentiation in the presence of recombinant M-CSF and RANKL for 72-96 h. […] At the end of the differentiation period, osteoclasts were fixed and stained for Tartrate resistant acid phosphatase activity (TRAP). Osteoclast differentiation and spreading were evaluated in terms of three parameters: number of osteoclasts, number of nuclei in osteoclasts and osteoclast surface area.
The positive control contains a differentiation medium with both M-CSF WT and RANKL. The negative control contains only […], which keeps the cells alive though not differentiated. Varying concentrations of M-CSFM and M-CSFM,M27R were added to the cells, that were grown for five days. Then the cells were fixated and stained using TRAP staining for differentiated osteoclasts. […]

Molecule	number of osteoclasts and nuclei at 5000 nM (BMMs, 5000 nM)	effect on osteoclast differentiation (Example 8, 50 nM, 1 μM and 5 μM with M-CSF and RANKL, 72-96 h)	effect on osteoclast differentiation/formation	number of osteoclasts and number of nuclei (BMMs)	osteoclast formation (BMMs)	numbers of osteoclasts and their nuclei (BMMs, 50, 1000 and 5000 nM without murine M-CSFWT)
B1	reduction in both osteoclasts and nuclei number	markedly enhanced osteoclast differentiation	acts as an inducer for osteoclast differentiation	the opposite result	highly accelerated in the two lower concentrations	–
B2	–	–	inhibits osteoclast formation in a dose dependent manner	a decrease in both parameters, in a dose-dependent manner	significantly inhibited, in a dose-dependent manner	–
B3	–	–	–	–	–	inhibits both the numbers of osteoclasts and their nuclei, in a dose dependent manner
